Experiments:
[1] = system: K4 kissing-loop RNA reporter; test: apparent KD of K4 kissing-loop reporter; higher = weaker reporter binding; conditions: Eterna round: R107;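 note: bound reporter read as fluorescence of individual clusters on recovered sequencing chips by microscopy, with normalized cluster intensities fitted with a binding model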
Procedure: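 RNA-MaP round R107: designed RNA switches with theophylline, tryptophan, arginine or FMN aptamers are transcribed on-chip within common flanks. They are titrated with a labelled K4 kissing-loop RNA reporter in RNA-MaP buffer (100 mM Tris pH 7.5, 80 mM KCl, 4 mM MgCl2), without ligand or with the indicated ligand. Median apparent KD per design.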

MS2 coat protein = test: apparent KD of MS2 coat protein; designed switch direction (-1 OFF switch, 1 ON switch): -1; higher = weaker reporter binding; conditions: Eterna round: R95; input ligand: microRNA oligo, concentration not stated
How it was run: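 Three titration conditions were used: no input, 200 uM small-molecule ligand, and an oligonucleotide input. In each, SNAP-549-labelled MS2 coat protein was raised from 0.7 or 1.5 nM, doubling, to 3 µM over designed RNA switches transcribed on Illumina chips by stalled E. coli RNA polymerase. Curve fits of normalised cluster fluorescence gave values whose per-design median over clusters is the apparent KD.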

[2] = input ligand: theophylline 20 uM
[3] = input ligand: tryptophan 2.4 mM

Sequence	apparent KD of K4 kissing-loop reporter ([1]; input ligand: FMN 200 uM)	apparent KD of K4 kissing-loop reporter ([1]; input ligand: arginine 13.2 mM)	apparent KD of K4 kissing-loop reporter ([1]; input ligand: none)	apparent KD of K4 kissing-loop reporter [1, 2]	apparent KD of K4 kissing-loop reporter [1, 3]	apparent KD of MS2 coat protein (MS2 coat protein)
AAAACUAUCAGAAGGAGCGUGGAAUAUUCAUCUGUAUUUAAUACGAGUGAUGUUCGUAAUUCACAGGUAGGUCGCUGAUCAAUAA [whbob_Ex_Arginine_B_2th154]	269 nM	253 nM	306 nM	305 nM	254 nM	–
AAAAUAAGCCAGUGAUGUUGGUAUACAGAUACCAGCGACGAAAGUCGCCCUUGGCAGCUGUGGACGUACAAAAUAAGUACGUCCU	364 nM	278 nM	417 nM	780 nM	364 nM	–
AAAAUAAGCCAGUGAUGUUGGUAUCCAGAUACCAGCGACGAAAGUCGCCCUUGGCAGCUGUGGACGUACAAAAUAAGUACGUCCU	194 nM	107 nM	143 nM	266 nM	126 nM	–
AAACAUCACUGGGAGUGAUGUUCUCAGUGACGAGGACCGGUACGGCCGCCACUCGCGAGAGAUAUAGAUAAGUAAUGACAUCAUU [Excl Tryptophan A V4]	347 nM	298 nM	354 nM	390 nM	433 nM	–
AAACAUCACUGGGAGUGAUGUUCUCAGUGACGAGGACCGGUACGGCCGCCACUCGCGAGAGAUAUAGUUAAGUAAUGACUGCAUU [Excl Tryptophan A V7]	324 nM	251 nM	294 nM	333 nM	324 nM	–
AAACAUCACUGGGAGUGAUGUUCUCAGUGACGAGGACCGGUACGGCCGCCACUCGCGAGAGAUCUAGUCUAGUCUUGACUGCAUU [Excl Tryptophan A V13]	282 nM	284 nM	292 nM	359 nM	333 nM	–
AAACAUUGGUCUGAUACCAGCUGAUCGGAAACGAUCUUGCUGGAGUGAUGUUCCAAGUAAAGCCCUUGGCAGCAGACCGAUGAAA [MAT - Same State Theophlline B - Mod of Eli - D19]	108 nM	53.3 nM	72.6 nM	107 nM	81.8 nM	–
AAACGCUGGAUGAAUAACAUCUAGCGAAUUCGAGGACCGGUACGGCCGCCACUCGAGCUAACUGCGAGUGAUGUUCGAUAAUAAA [Mat - Mod of OpenEnded 3 - D1]	306 nM	451 nM	441 nM	524 nM	80.9 nM	–
AAACGUCGGAAGUGAUGUUGAUGACGUAGUAAGGAUAUUGGACGCGCAAGAAGGUACUGGCAAACUAAGGACAUCCUGGAUAUUC [theeternabot_exclusion_KL_FMN_A_47]	330 nM	251 nM	232 nM	243 nM	254 nM	–
AAACGUUGGUCGGAUACCAGCUUGAUCGGAAAACGAUCUGCUGGAGUGAUGUUCCAAUAAAGCCCUUGGCAGCCGACCGACGAAA [MAT - Same State Theophlline B - Mod of Eli - D15]	662 nM	659 nM	1030 nM	746 nM	747 nM	–
AAACUUGCAGUGAUGUUGCAAGUAGGUGAUACCAGCAUCGAAAGAUGCCCUUGGCAGCACCAAAACAUCACUUAGGUAUCACCAA [(H1)-(H2)-(T1)-(T2)-(H)'-(T)'_Design3]	191 nM	192 nM	210 nM	234 nM	175 nM	–
AAAGAUCUUCUAGAAACUAGAAGAUCAAGAGAGGAUAUCCGAAUUCGGAGAAGGCUCACUAAGUGAUGUUUGGAGCCAAUGGCAA [AK2 SS FMN A]	1060 nM	1100 nM	1210 nM	1090 nM	932 nM	–
AAAUAGAUCAGUCACCCAGUGAUGUUGGAAGGAGCGUGCGAAAGCACAGGUAGGUCGCCAGAAUAAAAUUGGCUGAUCAAAAUAA	260 nM	337 nM	212 nM	393 nM	149 nM	–
AAAUAGAUCAGUCAUCCAGUGAUGUUGGAAGGAGCGUGCGAAAGCACAGGUAGGUCGCCAAAAUAAAACUGGCUGAUCAAAAUAA	292 nM	292 nM	338 nM	453 nM	270 nM	–
AAAUAGAUCAGUCAUCCAGUGAUGUUGGAAGGAGCGUGCGAAAGCACAGGUAGGUCGCCGAAAUAAAAGUGGCUGAUCAAAAUAA	128 nM	216 nM	143 nM	193 nM	102 nM	–
AAAUUCUUUUUUUUAUAUAACAAUUCAGAAGGAGCGUGGUAGAACACAGGUAGGUCGCUGAAUAUAAGACUAGUGAUGUUAGUAA [JR_SSArginiA_Sub010]	153 nM	192 nM	203 nM	214 nM	153 nM	–
AAAUUCUUUUUUUUAUUUAACUUUUCAGAAGGAGCGUGGUAGUACACAGGUAGGUCGCUGAAUUUUGGGCUAGUGAUGUUAGUUA [whbob_SS_Arginine_A_sa113]	221 nM	217 nM	258 nM	311 nM	193 nM	–
AACACCCGCUAUGAUACCAGUGAAGUGAUGUUUUACUCCGGGCGUAAGACAAAGGUCAGCCACCCUUGGCAGCAUAUCCGCGUAU [theeternabot_exclusion_KL_Theo_B_35]	721 nM	418 nM	594 nM	490 nM	440 nM	–
AACAUUUUCAGAAGGAGCGUGAAUUAUUCAUAAUUAUAUUAUACGAGUGAUGUUCGUAUUUCACAGGUAGGUCGCUGAUAUAUUA [JR_SSArginiB_Sub001]	113 nM	133 nM	114 nM	133 nM	107 nM	–
AACCGUGUGGCGGCCGCCACUAGUCUCCAGUGAUGUUGGAGAGACCACGUAAGUGGUCUCCGACAUAGGACCGGGCCAUAUGGAA [Same State - Tryptophan B (Freestyle 25)]	547 nM	339 nM	361 nM	531 nM	692 nM	–
AACGUUUUGAGAAGGAGCGCGUUAAGCAGUGAUGUUGCUGUAUUUUAUCCAAUUCAUAUAUCGCAGGUAGGUCGCUCAAUACGUA [JR_Nu_SSArginiB_Sub027]	574 nM	496 nM	557 nM	534 nM	432 nM	–

Sequence	apparent KD of K4 kissing-loop reporter ([1]; input ligand: FMN 200 uM)	apparent KD of K4 kissing-loop reporter ([1]; input ligand: arginine 13.2 mM)	apparent KD of K4 kissing-loop reporter ([1]; input ligand: none)	apparent KD of K4 kissing-loop reporter [1, 2]	apparent KD of K4 kissing-loop reporter [1, 3]	apparent KD of MS2 coat protein (MS2 coat protein)
AACUCUCAGACACUUGAGUGAUGUUCAGACCGAGGACCGGUACGGCCGCCACUCGGGUCUGAGAGAGGUUAUCAAAGAUAGCCAA [Omei KL Tryp A SS A v7]	280 nM	222 nM	336 nM	292 nM	905 nM	–
AACUGUCAAGGAACUUGCAACAAAGGUGAUACCAGCAUCGAAAGAUGCCCUUGGCAGCACCAACUUGCAGUGAUGUUGCAAGUAA [(T)'-(H)'-(T1)-(T2)-(H1)-(H2)_Design7]	300 nM	243 nM	322 nM	402 nM	286 nM	–
AAGAAUAAUCUUGCAGUGAUGUUGCAAGAUACCAGCAUCGAAAGAUGCCCUUGGCAGCUUGAAACUGCAAGAAUCAAGCUGAAUA [Design1]	150 nM	131 nM	140 nM	145 nM	137 nM	–
AAGCAGUCACUCGAAGCCAUCGAAGAUGGACGAGGACCGGUACGGCCGCCACUCGGAGUGAUGUUCCGAAGACUGCAAAAUAAAA	312 nM	274 nM	296 nM	330 nM	469 nM	–
AAGCCAAAGAUUGCUGCGGGUUCCAGAGAUACCAGCCGUAUUGAAGGCCCUUGGCAGCUCGAGUGAUGUUCGAGCCGUCUCUGGC [Lexerati]	127 nM	117 nM	117 nM	122 nM	105 nM	–
AAGCUACGCGCGGCCGCCACUGUUUAUGUAUAAAUGCGUCGCUCACUGCUUUAGUGAUGUUGAAGCAGGACCGGGCGAAUGGUAC [theeternabot_exclusion_KL_Trp_B_15]	80.9 nM	75 nM	79.6 nM	76.5 nM	82.7 nM	–
AAGGACGGGACUUCCUCGCCGGAUAGAGAUACCAGCCCAGCAAUGGGCCCUUGGCAGCUCACUGACCUCAGUGAUGUUGAGGUUC [Arange]	289 nM	203 nM	240 nM	193 nM	210 nM	–
AAGGCCACGAGAAGGAGCGUGCUAUGGAGUGAUGUUCCAGUGUAGACCUAAGGUCUACACGCACAGGUAGGUCGCUCGUGGUCAA [Omei KL Arginine B SS A v1]	209 nM	186 nM	203 nM	238 nM	186 nM	–
AAGGGCAGGACUUCCUUGCCGGAUAGAGAUACCAGCCCAGCAAAGGGCCCUUGGCAGCUCACUGACCUCAGUGAUGUUGAGGUUC [Xebisoer]	369 nM	268 nM	332 nM	272 nM	297 nM	–
AAGGGCUAGGCGGCCGCCACUGGUCGUGUACACAUACGAACCAGUGAUGUUGGUAUUGUAUGCGGCAGGACCGGGCCUAGCCGAA [Exclusion - Tryptophan B (Freestyle 26)]	415 nM	447 nM	448 nM	614 nM	405 nM	–
AAGGGCUAGGCGGCCGCCACUGGUCGUGUACACAUACGAGCCAGUGAUGUUGGUAUUGUGUGCGGCAGGACCGGGCCUAGCCGAA [Exclusion - Tryptophan B (Freestyle 25)]	410 nM	303 nM	304 nM	468 nM	387 nM	–
AAGGGCUAGGCGGCCGCCACUUGUUGUGAACACAUACGAGCCAGUGAUGUUGGUAUUGUGUGCGGAAGGACCGGGCCUAGCCGAA [Exclusion - Tryptophan B (Freestyle 22)]	178 nM	226 nM	228 nM	224 nM	302 nM	–
AAGGUAUCUAGAUGCUAGCAACAACUAGAUACCAGCAUCGAAAGAUGCCCUUGGCAGCUAGCAGUGAUGUUGCUAGCAAUAAGAA [Design4]	152 nM	130 nM	131 nM	158 nM	131 nM	–
AAGUAGCUCUCGGCCGCCACUCCUCAGUGAUGUUGAGAUAUUAACUGCCAAUUGGCGUAUUUAAAGAGGACCGGGAGAGCUACAA [AK2 SS Tryptophan B]	389 nM	389 nM	476 nM	397 nM	129 nM	–
AAGUGAUGUUGUAGUGAUGUUGUGAUGUUGCAGGAUAUAUAGUGAUGUAGAAGGGUAAGUACUGAUUUUUUUUGUGAGUGAUGUU [bbgvzrmullin]	87.9 nM	41.6 nM	75.9 nM	54.1 nM	71.4 nM	–
AAGUGAUGUUGUAGUGAUGUUGUGAUGUUGCAGGAUAUAUAGUGAUGUAGAAGGGUAAGUACUUAUUUUUUUUUUGAGUGAUGUU [vcbczrmullin]	96.6 nM	45 nM	76.5 nM	58 nM	83.7 nM	–
AAGUGAUGUUGUAGUGAUGUUGUGAUGUUGCAGGAUAUAUAGUGAUGUAGAAGGGUAUGUACAGAUUUUUUUUUUGAGUGAUGAU [ffdcmullin]	83.4 nM	37.1 nM	64.9 nM	48.1 nM	66.1 nM	–
AAUAUACAGGGAAGGAGCGCCGUCCAGUGAUGUUGGAGUUAAAUACCAGUGAUGUUGGUUAGGCAGGUAGGUCGCCCUAAAGUAU [Exclusion Arginine B Gf 2]	125 nM	82.7 nM	105 nM	102 nM	96.7 nM	–
AAUAUAGUGAUGUUAUAUAAGAAGGAGUUACGAGGACCGGUACGGCCGCCACUCGAAACGAGUGAGGAUUUGGGAGAUUGGGUUC [SSTryptA.L]	465 nM	539 nM	393 nM	302 nM	283 nM	–
UUUUUUGUUGUGAGGAUAUCGUUGUUGUUGUGGAUCGAGAAGGCACAUGAGGAUCACCCAUGUUUGUUGUGGUU [JR_BMOE4_Sub086] (puzzle: Brourd's mod of Exclusion 4)	–	–	–	–	–	83.7 nM

Reference: the supplement of paper PMC9170038
